The series deals with LTRP5-ADD-ZIM3 (dCasX491 fused to DNMT3A ADD/CD, DNMT3L, ZIM3-KRAB) (synthetic construct). Kind of series: cell_activity. The conditions noted are these: HEK293T day 8; non-targeting control.
Sequence of LTRP5-ADD-ZIM3 (dCasX491 fused to DNMT3A ADD/CD, DNMT3L, ZIM3-KRAB) (synthetic construct) (chain, as listed by the source): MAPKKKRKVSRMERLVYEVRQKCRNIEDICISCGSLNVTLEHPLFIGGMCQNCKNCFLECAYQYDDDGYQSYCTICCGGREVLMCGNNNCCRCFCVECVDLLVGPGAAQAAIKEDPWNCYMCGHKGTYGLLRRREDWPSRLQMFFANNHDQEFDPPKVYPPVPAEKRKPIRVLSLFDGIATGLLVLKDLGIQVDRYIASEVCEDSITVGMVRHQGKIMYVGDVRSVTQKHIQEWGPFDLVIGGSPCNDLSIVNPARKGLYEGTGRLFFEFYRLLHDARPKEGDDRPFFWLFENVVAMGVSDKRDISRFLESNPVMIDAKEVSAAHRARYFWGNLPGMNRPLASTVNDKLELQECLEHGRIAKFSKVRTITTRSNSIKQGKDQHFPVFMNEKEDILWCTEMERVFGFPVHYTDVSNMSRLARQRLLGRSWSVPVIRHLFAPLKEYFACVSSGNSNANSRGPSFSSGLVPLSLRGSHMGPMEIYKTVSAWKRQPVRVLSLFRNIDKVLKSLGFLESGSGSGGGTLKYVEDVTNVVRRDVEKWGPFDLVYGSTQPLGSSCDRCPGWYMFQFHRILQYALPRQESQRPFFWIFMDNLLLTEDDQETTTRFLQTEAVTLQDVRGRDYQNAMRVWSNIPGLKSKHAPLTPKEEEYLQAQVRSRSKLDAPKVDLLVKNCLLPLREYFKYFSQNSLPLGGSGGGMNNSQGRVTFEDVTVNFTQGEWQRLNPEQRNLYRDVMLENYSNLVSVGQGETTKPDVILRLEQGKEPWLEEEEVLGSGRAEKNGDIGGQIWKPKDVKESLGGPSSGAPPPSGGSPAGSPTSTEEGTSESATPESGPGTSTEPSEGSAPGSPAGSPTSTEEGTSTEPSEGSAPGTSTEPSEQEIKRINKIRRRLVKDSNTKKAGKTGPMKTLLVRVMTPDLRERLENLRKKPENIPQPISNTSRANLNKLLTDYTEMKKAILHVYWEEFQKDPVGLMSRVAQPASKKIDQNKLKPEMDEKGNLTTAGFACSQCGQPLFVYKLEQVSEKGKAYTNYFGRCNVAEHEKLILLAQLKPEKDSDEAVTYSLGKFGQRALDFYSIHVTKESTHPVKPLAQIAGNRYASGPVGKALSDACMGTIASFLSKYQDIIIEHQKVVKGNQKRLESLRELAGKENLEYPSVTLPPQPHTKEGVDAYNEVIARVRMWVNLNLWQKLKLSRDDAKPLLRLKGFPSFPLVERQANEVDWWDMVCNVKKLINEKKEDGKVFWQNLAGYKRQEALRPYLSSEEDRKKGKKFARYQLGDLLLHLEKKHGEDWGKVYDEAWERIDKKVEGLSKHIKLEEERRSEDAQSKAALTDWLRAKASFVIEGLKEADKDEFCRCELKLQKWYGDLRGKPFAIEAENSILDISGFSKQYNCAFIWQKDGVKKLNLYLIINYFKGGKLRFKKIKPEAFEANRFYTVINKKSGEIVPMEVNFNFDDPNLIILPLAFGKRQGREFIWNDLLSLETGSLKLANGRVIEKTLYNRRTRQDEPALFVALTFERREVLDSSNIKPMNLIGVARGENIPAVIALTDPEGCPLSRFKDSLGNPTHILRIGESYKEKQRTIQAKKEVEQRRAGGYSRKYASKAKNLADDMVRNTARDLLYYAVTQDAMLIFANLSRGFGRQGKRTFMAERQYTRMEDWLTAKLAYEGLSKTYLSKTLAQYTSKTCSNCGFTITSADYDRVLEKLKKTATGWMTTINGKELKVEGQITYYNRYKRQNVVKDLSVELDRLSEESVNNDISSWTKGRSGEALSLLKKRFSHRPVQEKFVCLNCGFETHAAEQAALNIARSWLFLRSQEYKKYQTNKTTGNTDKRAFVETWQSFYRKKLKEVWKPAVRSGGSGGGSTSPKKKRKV

Take “non-targeting spacer gRNA ; human B2M locus”: the activity (% HLA-negative cells) was found to be 8.44.

These data come from US20260240958.
